Results from patent US20150306193.

Biological target: T1, purified mouse serpinB13 (GenScript) (UniProt Q8CDC0)
T1 sequence: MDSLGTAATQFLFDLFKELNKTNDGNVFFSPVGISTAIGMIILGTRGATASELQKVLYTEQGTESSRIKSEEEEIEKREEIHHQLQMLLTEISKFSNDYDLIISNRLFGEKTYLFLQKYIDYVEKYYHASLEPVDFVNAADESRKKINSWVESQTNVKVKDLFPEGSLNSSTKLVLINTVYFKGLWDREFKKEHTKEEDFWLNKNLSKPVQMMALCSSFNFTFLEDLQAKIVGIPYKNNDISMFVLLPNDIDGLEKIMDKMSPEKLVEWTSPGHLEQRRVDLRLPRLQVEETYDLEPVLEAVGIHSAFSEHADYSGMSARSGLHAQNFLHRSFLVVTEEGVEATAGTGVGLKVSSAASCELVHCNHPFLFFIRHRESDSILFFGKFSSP

Cathepsin L (Calbiochem)
cleavage of (CBZ-Phe-Arg)2-R110 substrate by cathepsin L in the presence of serpinB13 (fold induction of maximum fluorescence over background): cathepsin L-mediated cleavage of the fluorescent substrate (CBZ-Phe-Arg)2-R110 from inhibition by serpinB13 in vitro
